Laboratory results from publication PMC9482650, “Quantitative fragmentomics allow affinity mapping of interactomes” (Nature Communications, 2022).

Legend:
Assay in all cases: holdup assay
Set-up in all cases: key: below the threshold = too weak to quantify, mostly under pKd 3.1 to 4
GRIP1_1, Q9Y3R0 = target: T1, GRIP1_1, Q9Y3R0
T1 sequence (Q9Y3R0 48-146, limits assumed, looked up): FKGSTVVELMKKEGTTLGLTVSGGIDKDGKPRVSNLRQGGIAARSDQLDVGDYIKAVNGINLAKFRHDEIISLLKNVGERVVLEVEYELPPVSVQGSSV

MAGI1_4, Q96QZ7 = target: MAGI1_4, Q96QZ7
MAGI1_4, Q96QZ7, sequence (Q96QZ7 other isoform, or with tags, fused parts or gaps): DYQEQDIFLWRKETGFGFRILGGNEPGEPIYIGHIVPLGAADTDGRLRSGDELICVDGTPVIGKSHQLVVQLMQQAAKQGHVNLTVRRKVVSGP

CNKSR3, Q6P9H4 = target: CNKSR3, Q6P9H4
CNKSR3, Q6P9H4, sequence (Q6P9H4 203-303): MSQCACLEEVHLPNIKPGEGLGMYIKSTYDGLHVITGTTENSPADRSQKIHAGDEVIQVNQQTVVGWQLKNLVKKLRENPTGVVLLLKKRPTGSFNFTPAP

SDCBP_1, O00560 = target: SDCBP_1, O00560
SDCBP_1, O00560, sequence (O00560 111-198): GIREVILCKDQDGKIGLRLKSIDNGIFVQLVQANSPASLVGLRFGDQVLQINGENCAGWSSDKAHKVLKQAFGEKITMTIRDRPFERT

TJP3_2, O95049 = target: T2, TJP3_2, O95049
T2 sequence (O95049 190-282, limits assumed, looked up): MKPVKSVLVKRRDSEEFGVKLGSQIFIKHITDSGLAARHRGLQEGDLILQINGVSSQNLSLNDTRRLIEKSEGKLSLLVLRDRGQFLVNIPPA

MPDZ_11, O75970 = target: T3, MPDZ_11, O75970
T3 sequence (O75970 1720-1817, limits assumed, looked up): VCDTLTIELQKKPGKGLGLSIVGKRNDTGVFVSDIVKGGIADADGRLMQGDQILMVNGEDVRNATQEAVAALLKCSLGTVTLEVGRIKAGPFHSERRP

SHROOM4, Q9ULL8 = target: T4, SHROOM4, Q9ULL8
T4 sequence (Q9ULL8 5-102, limits assumed, looked up): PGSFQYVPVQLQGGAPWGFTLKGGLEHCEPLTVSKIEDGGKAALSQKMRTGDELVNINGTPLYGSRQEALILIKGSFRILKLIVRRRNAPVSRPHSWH

PARD3B_3, Q8TEW8 = target: PARD3B_3, Q8TEW8
PARD3B_3, Q8TEW8, sequence (Q8TEW8 490-594): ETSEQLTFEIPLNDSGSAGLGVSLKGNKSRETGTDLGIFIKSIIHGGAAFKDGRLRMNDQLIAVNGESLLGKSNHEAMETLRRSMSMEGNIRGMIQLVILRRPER

PDZD2_4, O15018 = target: T5, PDZD2_4, O15018
T5 sequence (O15018 723-823, limits assumed, looked up): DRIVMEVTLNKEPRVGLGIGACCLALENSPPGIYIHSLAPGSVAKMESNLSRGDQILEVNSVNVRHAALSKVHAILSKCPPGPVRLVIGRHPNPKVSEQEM

SIPA1L3, O60292 = target: T6, SIPA1L3, O60292
T6 sequence (O60292 961-1052, limits assumed, looked up): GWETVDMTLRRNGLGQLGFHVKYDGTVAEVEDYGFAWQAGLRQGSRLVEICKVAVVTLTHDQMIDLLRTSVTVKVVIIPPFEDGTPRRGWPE

MAGI3_5, Q5TCQ9 = target: MAGI3_5, Q5TCQ9
MAGI3_5, Q5TCQ9, sequence (Q5TCQ9 847-941): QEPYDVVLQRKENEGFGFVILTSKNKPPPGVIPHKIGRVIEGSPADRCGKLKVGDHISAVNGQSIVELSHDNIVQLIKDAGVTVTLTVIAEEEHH

SNTB2, Q13425 = target: T7, SNTB2, Q13425
T7 sequence (Q13425 110-208, limits assumed, looked up): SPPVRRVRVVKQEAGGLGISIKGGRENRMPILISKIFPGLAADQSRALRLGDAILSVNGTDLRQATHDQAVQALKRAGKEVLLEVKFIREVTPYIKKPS

PARD3_1, Q8TEW0 = target: PARD3_1, Q8TEW0
PARD3_1, Q8TEW0, sequence (Q8TEW0 264-372): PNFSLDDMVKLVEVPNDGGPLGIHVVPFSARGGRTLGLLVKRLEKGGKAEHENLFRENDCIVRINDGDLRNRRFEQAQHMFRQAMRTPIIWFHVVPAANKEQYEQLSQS

SHROOM3, Q8TF72 = target: T8, SHROOM3, Q8TF72
T8 sequence (Q8TF72 20-120, limits assumed, looked up): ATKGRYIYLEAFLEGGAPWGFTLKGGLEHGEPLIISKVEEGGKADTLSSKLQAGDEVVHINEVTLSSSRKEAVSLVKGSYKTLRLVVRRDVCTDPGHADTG

LNX2_4, Q8N448 = target: T9, LNX2_4, Q8N448
T9 sequence (Q8N448 595-690, limits assumed, looked up): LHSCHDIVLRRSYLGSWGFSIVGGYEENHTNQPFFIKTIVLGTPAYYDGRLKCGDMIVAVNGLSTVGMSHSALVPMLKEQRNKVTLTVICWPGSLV

RIMS2, Q9UQ26 = target: RIMS2, Q9UQ26
RIMS2, Q9UQ26, sequence (Q9UQ26 637-758): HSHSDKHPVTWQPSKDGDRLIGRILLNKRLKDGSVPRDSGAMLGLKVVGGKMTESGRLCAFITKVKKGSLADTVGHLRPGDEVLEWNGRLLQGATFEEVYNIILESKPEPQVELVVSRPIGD

MAGI3_3, Q5TCQ9 = target: MAGI3_3, Q5TCQ9
MAGI3_3, Q5TCQ9, sequence (Q5TCQ9 572-655): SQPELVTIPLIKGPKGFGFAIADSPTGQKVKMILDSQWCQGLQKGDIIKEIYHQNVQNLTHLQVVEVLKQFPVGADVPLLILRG

MAGI1_3, Q96QZ7 = target: MAGI1_3, Q96QZ7
MAGI1_3, Q96QZ7, sequence (Q96QZ7 638-725): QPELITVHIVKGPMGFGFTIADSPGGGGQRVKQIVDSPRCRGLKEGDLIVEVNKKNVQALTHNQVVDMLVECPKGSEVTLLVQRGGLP

SHANK3, Q9BYB0 = target: T10, SHANK3, Q9BYB0
T10 sequence (Q9BYB0 641-750, limits assumed, looked up): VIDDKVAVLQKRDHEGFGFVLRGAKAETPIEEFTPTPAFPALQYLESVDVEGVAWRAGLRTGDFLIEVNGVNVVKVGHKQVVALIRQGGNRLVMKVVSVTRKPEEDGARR

PDZRN4_2, Q6ZMN7 = target: PDZRN4_2, Q6ZMN7
PDZRN4_2, Q6ZMN7, sequence (Q6ZMN7 389-498): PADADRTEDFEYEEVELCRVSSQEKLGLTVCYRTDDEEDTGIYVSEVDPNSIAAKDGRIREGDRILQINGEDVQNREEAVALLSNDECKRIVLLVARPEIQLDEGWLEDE

Inadl_7, Q8NI35 = target: Inadl_7, Q8NI35
Inadl_7, Q8NI35, sequence (Q8NI35 1219-1332): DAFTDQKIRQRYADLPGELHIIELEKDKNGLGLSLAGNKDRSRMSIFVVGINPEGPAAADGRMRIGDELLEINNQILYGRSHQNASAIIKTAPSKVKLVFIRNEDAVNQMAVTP

USH1C_2, Q9Y6N9 = target: T11, USH1C_2, Q9Y6N9
T11 sequence (Q9Y6N9 206-303, limits assumed, looked up): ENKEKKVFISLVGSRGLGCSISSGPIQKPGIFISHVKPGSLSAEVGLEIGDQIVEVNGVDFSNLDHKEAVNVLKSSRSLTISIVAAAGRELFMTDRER

PARD6B, Q9BYG5 = target: T12, PARD6B, Q9BYG5
T12 sequence (Q9BYG5 152-260, limits assumed, looked up): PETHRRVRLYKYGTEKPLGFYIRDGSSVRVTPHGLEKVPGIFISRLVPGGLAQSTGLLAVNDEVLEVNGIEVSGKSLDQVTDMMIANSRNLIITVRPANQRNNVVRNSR

MPDZ_13, O75970 = target: T13, MPDZ_13, O75970
T13 sequence (O75970 1982-2070, limits assumed, looked up): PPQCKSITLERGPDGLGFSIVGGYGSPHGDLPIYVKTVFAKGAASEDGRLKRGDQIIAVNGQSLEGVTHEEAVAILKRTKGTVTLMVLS

[1] = plain residues with an end cap or a label only (N-terminal biotin on a linker: none)
[2] = plain residues with an end cap or a label only (N-terminal biotin on a linker: ttds)

DSKPPLPPDEWV [MERS-E, K9N5R3]
pKd (GRIP1_1, Q9Y3R0; [1]): below the threshold
pKd (MAGI1_4, Q96QZ7; [1]): below the threshold
pKd (CNKSR3, Q6P9H4; [1]): below the threshold
pKd (SDCBP_1, O00560; [1]): 4.12
pKd (TJP3_2, O95049; [1]): below the threshold
pKd (MPDZ_11, O75970; [1]): below the threshold
pKd (SHROOM4, Q9ULL8; [1]): below the threshold
pKd (PARD3B_3, Q8TEW8; [1]): below the threshold
pKd (PDZD2_4, O15018; [1]): below the threshold
pKd (SIPA1L3, O60292; [1]): 3.73
pKd (MAGI3_5, Q5TCQ9; [1]): below the threshold
pKd (SNTB2, Q13425; [1]): below the threshold
pKd (PARD3_1, Q8TEW0; [1]): below the threshold
pKd (SHROOM3, Q8TF72; [1]): below the threshold
pKd (LNX2_4, Q8N448; [1]): 3.73
pKd (RIMS2, Q9UQ26; [1]): 4.39
pKd (MAGI3_3, Q5TCQ9; [1]): below the threshold
pKd (MAGI1_3, Q96QZ7; [1]): below the threshold
pKd (SHANK3, Q9BYB0; [1]): below the threshold
pKd (PDZRN4_2, Q6ZMN7; [1]): 3.75
pKd (Inadl_7, Q8NI35; [1]): below the threshold
pKd (USH1C_2, Q9Y6N9; [1]): below the threshold
pKd (PARD6B, Q9BYG5; [1]): below the threshold
pKd (MPDZ_13, O75970; [1]): below the threshold

HRTCYLVTQL [ASIC3, Q9UHC3]
pKd (GRIP1_1, Q9Y3R0; [2]): 4.31
pKd (MAGI1_4, Q96QZ7; [2]): below the threshold
pKd (CNKSR3, Q6P9H4; [2]): below the threshold
pKd (SDCBP_1, O00560; [2]): below the threshold
pKd (TJP3_2, O95049; [2]): below the threshold
pKd (MPDZ_11, O75970; [2]): below the threshold
pKd (SHROOM4, Q9ULL8; [2]): below the threshold
pKd (PARD3B_3, Q8TEW8; [2]): below the threshold
pKd (PDZD2_4, O15018; [2]): below the threshold
pKd (SIPA1L3, O60292; [2]): below the threshold
pKd (MAGI3_5, Q5TCQ9; [2]): 4.64
pKd (SNTB2, Q13425; [2]): below the threshold
pKd (PARD3_1, Q8TEW0; [2]): below the threshold
pKd (SHROOM3, Q8TF72; [2]): below the threshold
pKd (LNX2_4, Q8N448; [2]): below the threshold
pKd (RIMS2, Q9UQ26; [2]): below the threshold
pKd (MAGI3_3, Q5TCQ9; [2]): below the threshold
pKd (MAGI1_3, Q96QZ7; [2]): below the threshold
pKd (SHANK3, Q9BYB0; [2]): 5.52
pKd (PDZRN4_2, Q6ZMN7; [2]): below the threshold
pKd (Inadl_7, Q8NI35; [2]): 4.05
pKd (USH1C_2, Q9Y6N9; [2]): below the threshold
pKd (PARD6B, Q9BYG5; [2]): below the threshold
pKd (MPDZ_13, O75970; [2]): below the threshold

RTRQRNETQV [HPV51-E6, P26554]
pKd (GRIP1_1, Q9Y3R0; [2]): below the threshold
pKd (MAGI1_4, Q96QZ7; [2]): below the threshold
pKd (CNKSR3, Q6P9H4; [2]): below the threshold
pKd (SDCBP_1, O00560; [2]): below the threshold
pKd (TJP3_2, O95049; [2]): below the threshold
pKd (MPDZ_11, O75970; [2]): below the threshold
pKd (SHROOM4, Q9ULL8; [2]): below the threshold
pKd (PARD3B_3, Q8TEW8; [2]): below the threshold
pKd (PDZD2_4, O15018; [2]): 4.34
pKd (SIPA1L3, O60292; [2]): below the threshold
pKd (MAGI3_5, Q5TCQ9; [2]): below the threshold
pKd (SNTB2, Q13425; [2]): below the threshold
pKd (PARD3_1, Q8TEW0; [2]): below the threshold
pKd (SHROOM3, Q8TF72; [2]): below the threshold
pKd (LNX2_4, Q8N448; [2]): below the threshold
pKd (RIMS2, Q9UQ26; [2]): below the threshold
pKd (MAGI3_3, Q5TCQ9; [2]): below the threshold
pKd (MAGI1_3, Q96QZ7; [2]): below the threshold
pKd (SHANK3, Q9BYB0; [2]): below the threshold
pKd (PDZRN4_2, Q6ZMN7; [2]): below the threshold
pKd (Inadl_7, Q8NI35; [2]): below the threshold
pKd (USH1C_2, Q9Y6N9; [2]): below the threshold
pKd (PARD6B, Q9BYG5; [2]): below the threshold
pKd (MPDZ_13, O75970; [2]): below the threshold
